This is an account of results in paper PMC4833211.

In the assay the target is KirBac1.1 WT. Kind of assay: SEC.

Take KirBac1.1 WT (natural protein): the stoichiometry N (as a rule, the number of molecules, sites or subunits per partner or assembly) came to 4.
